US20200079854A1 (Johns Hopkins, published 2020)

B1: KRAS_G12D_A11_c16 (scFv)
scFv: DIQMTQSPSSLSASVGDRVTITCRASQDVNTAVAWYQQKPGKAPKLLIYSASFLYSGVPSRFSGSRSGTDFTLTISSLQPEDFATYYCQQYSYSPITFGQGTKVEIKRTGGGSGGGGSGGGASEVQLVESGGGLVQPGGSLRLSCAASGFNISDSYMHWVRQAPGKGLEWVATFSPYSSNTWYADSVKGRFTISADTSKNTAYLQMNSLRAEDTAVYYCSRSQFTFYQYFDYWGQGTLVTVSS
B2: KRAS_G12D_A11_c110 (scFv)
scFv: DIQMTQSPSSLSASVGDRVTITCRASQDVNTAVAWYQQKPGKAPKLLIYSASFLYSGVPSRFSGSRSGTDFTLTISSLQPEDFATYYCQQYEYVPHTFGQGTKVEIKRTGGGSGGGGSGGGASEVQLVESGGGLVQPGGSLRLSCAASGFNISYGYMHWVRQAPGKGLEWVAKFHYGSGNTYYADSVKGRFTISADTSKNTAYLQMNSLRAEDTAVYYCSRSNYYYLDYWGQGTLVTVSS
B3: KRAS_G12D_A11_c115 (scFv)
scFv: DIQMTQSPSSLSASVGDRVTITCRASQDVNTAVAWYQQKPGKAPKLLIYSASFLYSGVPSRFSGSRSGTDFTLTISSLQPEDFATYYCQQYSYMPITFGQGTKVEIKRTGGGSGGGGSGGGASEVQLVESGGGLVQPGGSLRLSCAASGFNVSGQYMHWVRQAPGKGLEWVAVISPVSGNTYYADSVKGRFTISADTSKNTAYLQMNSLRAEDTAVYYCSRPMKTSYYGAFDYWGQGTLVTVSS
B4: KRAS_G12D_A11_c112 (scFv)
scFv: DIQMTQSPSSLSASVGDRVTITCRASQDVNTAVAWYQQKPGKAPKLLIYSASFLYSGVPSRFSGSRSGTDFTLTISSLQPEDFATYYCQQYSYMPITFGQGTKVEIKRTGGGSGGGGSGGGASEVQLVESGGGLVQPGGSLRLSCAASGFNISYQHIHWVRQAPGKGLEWVAVFMPYQGSTYYADSVKGRFTISADTSKNTAYLQMNSLRAEDTAVYYCSRANIYSSHSFFDYWGQGTLVTVSS
B5: KRAS_G12D_A11_c17 (scFv)
scFv: DIQMTQSPSSLSASVGDRVTITCRASQDVNTAVAWYQQKPGKAPKLLIYSAYFLYSGVPSRFSGSRSGTDFTLTISSLQPEDFATYYCQQYSAYYQPITFGQGTKVEIKRTGGGSGGGGSGGGASEVQLVESGGGLVQPGGSLRLSCAASGFNIFSDQMHWVRQAPGKGLEWVAGFMPYDSYYTNYADSVKGRFTISADTSKNTAYLQMNSLRAEDTAVYYCSRMSVRNAFDYWGQGTLVTVSS
B6: KRAS_G12D_A11_c117 (scFv)
scFv: DIQMTQSPSSLSASVGDRVTITCRASQDVNTAVAWYQQKPGKAPKLLIYSASFLYSGVPSRFSGSRSGTDFTLTISSLQPEDFATYYCQQYDYRPVTFGQGTKVEIKRTGGGSGGGGSGGGASEVQLVESGGGLVQPGGSLRLSCAASGFNVSTSGMHWVRQAPGKGLEWVAFIYGAYSGTYYADSVKGRFTISADTSKNTAYLQMNSLRAEDTAVYYCSRSQSYTYWSAMDYWGQGTLVTVSS
B7: KRAS_G12D_A11_c19 (scFv)
scFv: DIQMTQSPSSLSASVGDRVTITCRASQDVNTAVAWYQQKPGKAPKLLIYSASFLYSGVPSRFSGSRSGTDFTLTISSLQPEDFATYYCQQYSYYPITFGQGTKVEIKRTGGGSGGGGSGGGASEVQLVESGGGLVQPGGSLRLSCAASGFNLSYSYMHWVRQAPGKGLEWVAVISGFSGNTYYADSVKGRFTISADTSKNTAYLQMNSLRAEDTAVYYCSRSDSYYTAMDYWGQGTLVTVSS
B8: KRAS_G12D_A11_c14 (scFv)
scFv: DIQMTQSPSSLSASVGDRVTITCRASQDVNTAVAWYQQKPGKAPKLLIYSASFLYSGVPSRFSGSRSGTDFTLTISSLQPEDFATYYCQQYSFYPFTFGQGTKVEIKRTGGGSGGGGSGGGASEVQLVESGGGLVQPGGSLRLSCAASGFNFGSYIHWVRQAPGKGLEWVAIISGYSGNTYYADSVKGRFTISADTSKNTAYLQMNSLRAEDTAVYYCSRSNQSAYSYMDYWGQGTLVTVSS
B9: KRAS_G12D_A11_c118 (scFv)
scFv: DIQMTQSPSSLSASVGDRVTITCRASQDVNTAVAWYQQKPGKAPKLLIYSASFLYSGVPSRFSGSRSGTDFTLTISSLQPEDFATYYCQQYDFTPMTFGQGTKVEIKRTGGGSGGGGSGGGASEVQLVESGGGLVQPGGSLRLSCAASGFNISYAKMHWVRQAPGKGLEWVAYLTYWGGYTNYADSVKGRFTISADTSKNTAYLQMNSLRAEDTAVYYCSRGEYGTYMDYWGQGTLVTVSS
B10: KRAS_G12D_A11_c114 (scFv)
scFv: DIQMTQSPSSLSASVGDRVTITCRASQDVNTAVAWYQQKPGKAPKLLIYSASFLYSGVPSRFSGSRSGTDFTLTISSLQPEDFATYYCQQYAYYPVTFGQGTKVEIKRTGGGSGGGGSGGGASEVQLVESGGGLVQPGGSLRLSCAASGFNLSGYYMHWVRQAPGKGLEWVAWFSPYSGYTYYADSVKGRFTISADTSKNTAYLQMNSLRAEDTAVYYCSRTHSSIYHSFDYWGQGTLVTVSS
B11: KRAS_G12D_A11_c119 (scFv)
scFv: DIQMTQSPSSLSASVGDRVTITCRASQDVNTAVAWYQQKPGKAPKLLIYSASFLYSGVPSRFSGSRSGTDFTLTISSLQPEDFATYYCQQYSSSSPVTFGQGTKVEIKRTGGGSGGGGSGGGASEVQLVESGGGLVQPGGSLRLSCAASGFNFSSYVMHWVRQAPGKGLEWVAVVYPDSGGTYYADSVKGRFTISADTSKNTAYLQMNSLRAEDTAVYYCSRTSSYYAFDYWGQGTLVTVSS
B12: H/K/N RAS Q61K_A1_c16 (scFv)
scFv: DIQMTQSPSSLSASVGDRVTITCRASQDVNTAVAWYQQKPGKAPKLLIYSASFLYSGVPSRFSGSRSGTDFTLTISSLQPEDFATYYCQQHYYSPVTFGQGTKVEIKRTGGGSGGGGSGGGASEVQLVESGGGLVQPGGSLRLSCAASGFNIFYQDMHWVRQAPGKGLEWVAMIYPDYDYTYYADSVKGRFTISADTSKNTAYLQMNSLRAEDTAVYYCSRTYSVYMDYWGQGTLVTVSS
B13: H/K/N RAS Q61H_A1_c10 (scFv)
scFv: DIQMTQSPSSLSASVGDRVTITCRASQDVNTAVAWYQQKPGKAPKLLIYSASFLYSGVPSRFSGSRSGTDFTLTISSLQPEDFATYYCQQGYFYYPNTFGQGTKVEIKRTGGGSGGGGSGGGASEVQLVESGGGLVQPGGSLRLSCAASGFNIGYYGMHWVRQAPGKGLEWVATVYPGGGYTSYADSVKGRFTISADTSKNTAYLQMNSLRAEDTAVYYCSRYYYYGFDYWGQGTLVTVSS
B14: H/K/N RAS Q61K_A1_c18 (scFv)
scFv: DIQMTQSPSSLSASVGDRVTITCRASQDVNTAVAWYQQKPGKAPKLLIYSASFLYSGVPSRFSGSRSGTDFTLTISSLQPEDFATYYCQQYAYAPFTFGQGTKVEIKRTGGGSGGGGSGGGASEVQLVESGGGLVQPGGSLRLSCAASGFNVSYSMIHWVRQAPGKGLEWVARVWGDGGVTYYADSVKGRFTISADTSKNTAYLQMNSLRAEDTAVYYCSRGSYYAFDYWGQGTLVTVSS
B15: H/R/N RAS Q61R_A1_c116 (scFv)
scFv: DIQMTQSPSSLSASVGDRVTITCRASQDVNTAVAWYQQKPGKAPKLLIYSASFLYSGVPSRFSGSRSGTDFTLTISSLQPEDFATYYCQQAHMIPITFGQGTKVEIKRTGGGSGGGGSGGGASEVQLVESGGGLVQPGGSLRLSCAASGFNFSFPGMHWVRQAPGKGLEWVAWFVGYDGYTYYADSVKGRFTISADTSKNTAYLQMNSLRAEDTAVYYCSRDYYSFSMDYWGQGTLVTVSS

Target: KRAS wt(8-16) peptide … with HLA-A11 and b2M on peptide-pulsed MINO cells (human)
Test: flow cytometry, phage-displayed scFv on peptide-pulsed MINO cells (FIG. 10)
Method: (§1) Cells were stained with 10 μL of precipitated phage per 100 μL of cells, washed and stained with rabbit anti-M13 antibody, then washed and stained with anti-Rabbit-PE antibody. Cells were stained with a live/dead Near-IR dye, washed, and analyzed by an LSRII flow cytometer.
(§2) The pulsed cells were pelleted, washed once in cold stain buffer (PBS containing 0.5% BSA, 2 mM EDTA, and 0.1% sodium azide), and resuspended in 100 μL of stain buffer. Phage staining was performed on ice with 10 uL (approximately 1×10⁹) phage for 1 hour in 100 uL total volume, followed by one 4 mL wash in cold stain buffer. Cells were then stained with 1 uL of rabbit anti-M13 antibody (Pierce, Rockford, Ill.) in 100 uL total volume on ice for 1 hour and washed once with 4 mL of cold stain buffer. Cells were stained with anti-rabbit-PE (Biolegend) on ice for 1 hour in 100 uL total volume, followed by incubation with LIVE/DEAD Fixable Near-IR Dead Cell Stain (Thermo Fisher) for 10 min at room temperature per manufacturer's instructions. Cells were washed once in 4 mL of stain buffer followed by resuspension in 300 uL of stain buffer before analysis. Stained cells were analyzed using an LSRII flow cytometer (Becton Dickinson, Mansfield, Mass.).

Binding result, no binding:
B1
B2
B3
B4
B5
B6
B7
B8
B9
B10
B11

Target: H/K/N RAS wt(55-64) peptide … with HLA-A1 and b2M on peptide-pulsed SigM5 cells (human)
Test: flow cytometry, phage-displayed scFv on peptide-pulsed SigM5 cells (FIG. 14)
Method: as §1, §2

Binding result, no binding:
B12
B13
B14
B15
